Consider 1 molecule from US20080199851A1.

In the assay the target is Inactivated influenza H5N1, Ck HK Yu22/02 (Influenza A virus Ck/HK/Yu22/02 (H5N1)). Put plainly: cell-based or functional assay.

B1: 10F7 single chain antibody (scFv)
scFv: QVQLQQPGAELVKPGASVKLSCKASGYTFTSYWMHWVKQRPGQGLEWIGEIDPSDSYTNYNQKFKGKATLTVDKSSSTAYMQLSSLTSEDSAVYYCARGGTGDFHYAMDYWGQGTSVTVSSGGGGSDILMTQSPSSMSVSLGDTVSITCHASQGISSNIGWLQQKPGKSFKGLIYHGTNLEDGVPSRFSGSGSGADYSLTISSLESEDFADYYCVQYVQFPYTFGGGTKLEIKR
Consider B1, for which the neutralization: dilution of 10F7 scFv (fold dilution) was 64.
